For 167 variants, self-cleavage results are on record in the RNAGym collection of RNA variant scans (doi:10.7554/elife.80360).

B1: Hairpin Ribozyme (parent)
chain: GUCCUCUUUCACGUGCGCGUGAAAGAGAGAAGUGAACCAGAGAAACACACGUUGUGGUAUAUUACCUGGUA

In the data set the parent is B1. The data set is described as follows: self-cleavage, relative activity (ratio to wild type); higher = more cleavage; co-transcriptional.
Regarding C4G G42C, the self-cleavage was determined as 0.17.
Consider U5G G25C, for which the self-cleavage is 0.214.
Turning to C37G A43C, the self-cleavage came to 0.108.
The result for C12G C48U reads 0.193; that for A31C C48U, 0.159; that for C6G U8A, 0.263.
Then C6G U8G, with 0.269.
The result for C12A A47G reads 0.0872.
For the variant G15C G69C, the self-cleavage came to 0.275.
For C10A U63G, the self-cleavage is 0.152.
As for C46A U67A, the self-cleavage stood at 0.122.
Consider U8C A47U, for which the self-cleavage was 0.224.
A31G G42C: the self-cleavage came to 0.278.
Regarding A26U G29C, the self-cleavage was found to be 0.135.
Turning to A28U C38G, the self-cleavage amounted to 0.0619.
A59U U70G: the self-cleavage was 0.159.
Then G15U C46A, with 0.167.
Take C16U C50U: the self-cleavage was 0.366.
For G19U G68C, the self-cleavage came out at 0.196.
For the variant G21A U63C, the self-cleavage came to 0.155.
As to G1A A45G, the self-cleavage was determined as 0.0977.
In the case of A23G G29C, the self-cleavage worked out at 0.123.
As to A23C A45G, the self-cleavage is 0.173.
The result for U5A U70G reads 0.171; that for U55C C66G, 0.191; that for A22U A44G, 0.113.
Regarding A22U A44C, the self-cleavage amounted to 0.239.
Consider U5C C48G, for which the self-cleavage turned out to be 0.0712.
On to G40A U60G, for which the self-cleavage is 0.214.
Then C6G C10A, with 0.354; and A23U A45U, with 0.2.
In the case of G29U A43C, the self-cleavage was 0.0797.
Then U8A U9C, with 0.377; and C10A G69U, with 0.14; and G15A U20A, with 0.847.
In the case of U7A A41G, the self-cleavage turned out to be 0.973.
Then G1C G57U, with 0.0983.
In the case of G1A G54U, the self-cleavage came out at 0.153.
For the variant C18U U62C, the self-cleavage amounted to 0.393.
On to A23C A59G, for which the self-cleavage came to 0.143.
In the case of G54A U58A, the self-cleavage was determined as 0.453.
For G29C A31G, the self-cleavage came to 0.187.
With A36U U58A, the self-cleavage turned out to be 0.386.
Regarding A41G A61G, the self-cleavage was determined as 0.179.
With A43G C65A, the self-cleavage came out at 0.0913.
Take G32A A45U: the self-cleavage worked out at 0.143.
On to C6A C66G, for which the self-cleavage was determined as 0.109.
With U2A U53C, the self-cleavage turned out to be 0.292.
Consider U2A U53A, for which the self-cleavage turned out to be 0.303.
Turning to G42U A61C, the self-cleavage was determined as 0.193.
The result for C37U U55A reads 0.143; that for C6A A30U, 0.0998; that for U52G U58A, 0.452.
With G51A A59C, the self-cleavage is 0.181.
As to C18U G25U, the self-cleavage is 0.69.
The result for C12G A64C reads 0.334; that for C50A C65A, 0.142; that for G29A A31U, 0.178.
On to C6A A61C, for which the self-cleavage amounted to 0.225.
In the case of G13A G42A, the self-cleavage stood at 0.194.
The result for A36U C50G reads 0.0987; that for U7A G57C, 0.151; that for C4U G15C, 0.232.
As to G13U G68C, the self-cleavage came to 0.19.
On to G29A A39U, for which the self-cleavage is 0.107.
On to G29U, for which the self-cleavage stood at 0.132.
With G21C C46G, the self-cleavage is 0.162.
Take U7A U20C: the self-cleavage is 0.774.
A26G A41C: the self-cleavage amounted to 1.25.
The result for U33C C66G reads 0.112; that for C10G C50G, 0.142; that for C46G U53G, 0.186.
For the variant G19A U52C, the self-cleavage came to 0.835.
As for G42C A61G, the self-cleavage amounted to 0.178.
On to A26C U33G, for which the self-cleavage is 0.0995.
Turning to A39U G69C, the self-cleavage turned out to be 0.073.
Take G1C A26U: the self-cleavage came to 0.18.
Consider G21A A26C, for which the self-cleavage is 0.0544.
In the case of U55C C65A, the self-cleavage was 0.142.
The result for U8C A43C reads 0.126.
As for G21A G32C, the self-cleavage came out at 0.146.
A23U G51A: the self-cleavage came out at 0.844.
Take U2G U63C: the self-cleavage came out at 0.142.
Regarding G17C A64U, the self-cleavage was 0.176.
Regarding A47G A59U, the self-cleavage is 0.186.
With A31C G51U, the self-cleavage is 0.149.
With A24C G25U, the self-cleavage was found to be 0.388.
As to A24U G40A, the self-cleavage was 0.281.
For the variant A30U A47U, the self-cleavage worked out at 0.0724.
Consider G42U U60A, for which the self-cleavage was 0.178.
For G1A C65A, the self-cleavage worked out at 0.285.
As to A23C A71U, the self-cleavage is 0.832.
On to U8G A61G, for which the self-cleavage was determined as 0.0213.
In the case of C18U C48G, the self-cleavage is 0.0965.
Then A45U G69A, with 0.111; and A35U G42C, with 0.246; and U20G A26G, with 0.788.
G1U U63G: the self-cleavage stood at 0.0703.
For A35G U67A, the self-cleavage was found to be 0.201.
For the variant C3G U67G, the self-cleavage was 0.102.
In the case of G25C A64G, the self-cleavage was determined as 0.4.
On to U58A U70C, for which the self-cleavage was found to be 0.728.
On to U20C C37A, for which the self-cleavage stood at 0.426.
U52A G56A: the self-cleavage is 0.256.
Take A39C A49C: the self-cleavage came to 0.151.
U2A A41U: the self-cleavage is 0.54.
For the variant A64U U67A, the self-cleavage came to 0.206.
Turning to A44G U58A, the self-cleavage is 0.17.
U2C A71G: the self-cleavage turned out to be 0.125.
Take A24G C48U: the self-cleavage came to 0.179.
Consider U2A G29C, for which the self-cleavage was found to be 0.105.
On to U2C C4G, for which the self-cleavage is 0.0947.
For C4G A47C, the self-cleavage was 0.13.
The result for G13U A64C reads 0.267; that for U5G U52A, 0.444.
Then G17A U70A, with 0.897.
Then C16A A39U, with 0.364.
As to A23G A43C, the self-cleavage was 0.169.
Take G13A C65A: the self-cleavage amounted to 0.743.
Take C38G G68U: the self-cleavage was 0.514.
Regarding A59G A61U, the self-cleavage worked out at 0.141.
C50A G54C: the self-cleavage was found to be 0.375.
G25C U58G: the self-cleavage was determined as 0.403.
U9A G42C: the self-cleavage was found to be 0.187.
As for C38A C46G, the self-cleavage is 0.133.
On to G1A C6U, for which the self-cleavage stood at 0.195.
As to U33A U67G, the self-cleavage turned out to be 0.169.
For the variant G40A C50A, the self-cleavage was 0.194.
A43G G68C: the self-cleavage was found to be 0.0248.
For the variant U5C U67A, the self-cleavage was 0.0797.
In the case of U53A U63C, the self-cleavage is 0.156.
Then G42A U63C, with 0.113.
In the case of G17U A61G, the self-cleavage amounted to 0.117.
C12A A22C: the self-cleavage turned out to be 0.575.
For the variant A43U C50G, the self-cleavage was found to be 0.107.
Consider G56A G57A, for which the self-cleavage was 0.136.
Then A30C U63G, with 0; and A22G U62A, with 0.189.
Then U14A G54A, with 0.581; and C6U A43C, with 0.0901; and G27C A43C, with 0.107.
Turning to C16U G69U, the self-cleavage came out at 0.267.
For the variant G17U U53G, the self-cleavage came to 0.954.
Take A23U C38G: the self-cleavage was 0.167.
Then G17A G21A, with 0.792; and A35G C37U, with 0.302.
With C10G G29U, the self-cleavage came to 0.136.
As to G17U U58C, the self-cleavage worked out at 1.13.
As to A23C G56A, the self-cleavage was determined as 0.187.
On to G13A A43G, for which the self-cleavage is 0.0659.
As for C16G G68U, the self-cleavage is 0.132.
Take G25A U60G: the self-cleavage amounted to 0.291.
In the case of A39U G57A, the self-cleavage came to 0.155.
The result for U8G G15C reads 0.639.
As for G27A G29A, the self-cleavage turned out to be 0.189.
Consider A28C G68U, for which the self-cleavage is 0.214.
Take C10A U52C: the self-cleavage amounted to 0.81.
In the case of G34C A41U, the self-cleavage stood at 1.42.
As to G19U C37A, the self-cleavage was 0.34.
For the variant U63G C65U, the self-cleavage is 0.11.
For G15A G29U, the self-cleavage was found to be 0.0945.
In the case of A44U U67G, the self-cleavage stood at 0.102.
With G57C U58A, the self-cleavage is 0.222.
Regarding C6A G25C, the self-cleavage worked out at 0.64.
As for G1U U62C, the self-cleavage came to 0.172.
In the case of C4U A43C, the self-cleavage came to 0.128.
C18G U70A: the self-cleavage came out at 0.885.
